The text below walks through data of US20070009972A1, “Epidermal growth factor receptor polypeptides and antibodies” (priority 2005, published 2007).

For one experiment, the target named is T1, EGFR (Homo sapiens, UniProt P00533).
T1 construct: tested them in a model HMEC cell system; endogenous in cells; host or cells: 184A1 human mammary epithelial cells (HMECs)
In words: Cyclic polypeptide inhibition of EGFR phosphorylation in model HMEC cell system. The format is cell-based. As to conditions: biotinylated cyclic polypeptide. An excerpt:
We selected amino acid sequences corresponding to fragments of Domain II and Domain IV of EGFR. The sequence of each polypeptide is shown in the first column of Table 1. The polypeptides were chosen based on their positions on the crystal structures of monomeric and dimeric EGFR (Burgess et al., Mol. Cell 12:541-552, 2003). Although Domain IV of EGFR is not resolved in the dimer crystal structure, it is believed that portions of Domain IV come into contact upon dimerization. […] We generated biotinylated cyclic polypeptides that included each sequence and tested them in a model HMEC cell system. The sequences of the biotinylated cyclic polypeptides are shown in the third column of Table 1. […] For the LYNPTTYQMD polypeptide, the different results obtained from polypeptide and polyclonal antisera inhibition could be due to differences in the quantitative details of the assays, or the polypeptide could have a lower affinity for the receptor than the polyclonal antisera does.

Experiment [1] addresses T2, Biotin-GCGLYNPTTYQMDGCG-CONH2 (SEQ ID NO:7) (not fully specified (bridges); printed as Biotin-GCGLYNPTTYQMDGCG-; also: cyclic (type of ring not given here)).
T2 construct: Biotinylated cyclic polypeptide tested on HMECs; also called EGFR Domain II (245-254) peptide
T2 peptide: Biotin-GCGLYNPTTYQMDGCG-NH2
Description: yeast surface display screen of naive human library against the peptide (1 round MACS, 3 rounds FACS); clone isolated as specific binder.

For experiment [2], the target named is T3, Biotin-GCLVWKYADAGCG-CONH2 (SEQ ID NO:11) (not fully specified (bridges); printed as Biotin-GCLVWKYADAGCG-; also: cyclic (ring type and places not given here)).
T3 construct: Biotinylated cyclic polypeptide; also called EGFR Domain IV (582-590) peptide
T3 peptide: Biotin-GCLVWKYADAGCG-NH2
The experiment is described as above.

The target of experiment [3] is T4, Biotin-GCRNVSRGRECG-CONH2 (SEQ ID NO:8) (not fully specified (bridges); printed as Biotin-GCRNVSRGRECG-; also: cyclic (ring type and places not given here)).
T4 construct: Biotinylated cyclic polypeptide; also called EGFR Domain IV (502-511) peptide
T4 peptide: Biotin-GCRNVSRGRECG-NH2
Described as above.

Experiment [4] concerns the target T5, Biotin-GCAHYIDGPHCG-CONH2 (SEQ ID NO:9) (not fully specified (bridges); printed as Biotin-GCAHYIDGPHCG-; also: cyclic (type of ring not given here)).
T5 construct: Biotinylated cyclic polypeptide; also called EGFR Domain IV (558-567) peptide
T5 peptide: Biotin-GCAHYIDGPHCG-NH2
Described as above.

Experiment [5] deals with T6, Biotin-Aha-CMGENNTG-CONH2 (SEQ ID NO:10) (also: called cyclic, ring not described).
T6 construct: also called EGFR Domain IV (576-581) peptide
T6 peptide: {Biotin-Ahx}-CMGENNTG-NH2
Described as above.

*: point of attachment. Biotin = O=C1N[C@H]2[C@H](CS[C@H]2CCCCC(=O)*)N1; Ahx = NCCCCCC(=O)O

Turning to “LYNPTTYQMD [Biotin-GCGLYNPTTYQMDGCG-CONH2]”, the “Peptide Inhibition” value at EGFR is “No”. In the case of CRNVSRGREC [Biotin-GCRNVSRGRECG-CONH2], on EGFR, the “Peptide Inhibition” value is “Yes”. With LVWKYADAG [Biotin-GCLVWKYADAGCG-CONH2], the “Peptide Inhibition” value on EGFR was “Yes”. The same measure, in the same setting: next, CAHYIDGPHC [Biotin-GCAHYIDGPHCG-CONH2]: “Yes”.

B1: SEQ ID NO 18 (other)
VH: QVQLVQSEGGVVQPGRSLRLSCAASGFTFSSYAMHWVRQAPGKGLEWVAVISYDGSNKYYADSVKGRFTISRDNSKNTLYLQMNSLRAEDTAVYYCARDEGYYGSGCIDYWGQGTLVTVSSGILGSGGGSGGGGSGGGGLQEF
In the case of B1, the binding result in experiment [1] is listed as “binds”.

B2: SEQ ID NO 38 (other)
VH: QITLKESGPTVVKPTQTLTLTCTFSGFSLSTSGVGVGWIRQPPGKALEWLALISWDDDKRYSPSLKSRLTITKDTSKNQVVLTMTNMDPVDTATYFCAHLNNFVDAIELRTGWCFDVWGRGTLVTVSGILGSGGGGSGGGGSGGGVLKLC
For the molecule B2, the binding result in experiment [2] was “binds”.

B3: SEQ ID NO 39 (other)
VH: QITLKESGPTVVKPTQTLTLTCTFSGFSLSTSGVGVGWIRQPPGKALEWLALISWDDDKRYSPSLKSRLTITKDTSKNQVVLTMTNMDPVDTATYFCAHLINFVDAIELRTGWCFDVWGRGTLVTVSGILGSGGGGSGGGGSGGGVLKLR
For B3, in experiment [2], the binding result is “binds”.

B4: SEQ ID NO 20 (other)
VH: QVQLQQSGPGLVKPSQTLSLTCDISGDSVSSDSAAWNWIRLSPSRGLEWLGRTYYWSKWYTDYAVSVKSRITINPDTSKNQFSLQLNSVTPEDTAVYFCARERYCSSTSCYLDAFDIWGQGTMVTVSGILGSGGGGSGGGGSGGGGLQEF
Take B4: the binding result in experiment [3] was “binds”.

B5: SEQ ID NO 27 (scFv)
scFv: QITLKESGPTLVKPTQTLTLTCTFSGFSLSTNGVGVGWIRQPPGKALEWLALIYWNDDKRYSPSLKRRLTITKDTSKNQVVLTMTNMDPVDTATYYCAHRLLDSGYILPPTFDYWGQGTLVTVSSGILGSGGGGSGGGGSGGGGSEIVLTQSPGTLSLSPGERATLSCRASQSVNSGYLAWYQQKPGQAPRLLISAASSRATGIPDRFSGSGSGTDFTLTISRLEPEDFAVYYCQRYDTSRGFTFGPGTKVDIKSGF
For B5, in experiment [4], the binding result was “binds”.

B6: SEQ ID NO 19 (other)
VH: QVQLVQSEGGVVQPGRSLRLSCAAPGFTFSSYAMHWVRQAPGKGLEWVAVISYDGSNKYYADSVKGRFTISRDNSKNTLYLQMNSLRAEDTAVYYCARDEGYYGSGCIDYWGQGTLVTVSSGILGSGGGGSGGGGSGGGGLQEF
Take B6: the binding result in experiment [1] is recorded as “binds”.

B7: SEQ ID NO 37 (other)
VH: QVQLQESGPGLVKPSETLSLTCTVSGGSISNSDYYWGWIRQPPGKGLRWIGSINYYGTTYYNPSLKSRVAMSVDTSKNQFSLKLSSVTAADTAVYYCARRGANSWFFDLWGRGTLVTVSSGILGSGGGSGGGGSGGGGLQEF
notes: also called VH clone isolated against MGENNT
For the molecule B7, in experiment [5], the binding result was “binds”.

B8: SEQ ID NO 35 (scFv)
scFv: QVQLVESEGRLVKPGGSLRLSCVASGMTFNNAWMSWVRQAPGKGLEWVGRIRSESNGGTTDYAAPGKGRFTISRDDSKNTLYLQMNSLQIEDTAVYYCATDRGYSNSGNYYRHYWGQGTLVTVSSGILGSGGGGSGGGGSGGGGSDIRLTQSPSSLSASVGDRVTITCQASQDISNYLNWYQQKPGKAPKLLIYDASNLETGVPPRFSGSGSGTAFTFTISSLQPEDFATYYCQQYDNLPHTFGPGTKVDIKSGILEQKLISEEDL
In the case of B8, in experiment [4], the binding result is reported as “binds”.

B9: SEQ ID NO 21 (other)
VH: QVQLQQWGPGLLKPSETLSLTCGVSGGSLSGYYWSWIRQSPGKELEWIGEINQGGSTNYNPSLRSRVTISVDTSKKQLSLKVNSVTASDTAVYYCARETFRGSNCFDSWGQGTLVTVSSGILGSGGGIGGGGSGGGGLQEF
B9: in experiment [3], the binding result was “binds”.

B10: SEQ ID NO 36 (other)
VH: QVQLQESGPGLVKPSETLSLTCTFSGGSIRSSSDYWGWVRQPPGKGLEWIGSISSSGSTYYNPSLKSRVTISVDTSRNQFSLRLSSVTAADTAIYYCARYNHYWYFDLWGRGTLVTVSSGILGSGGGSGGGGSGGGGSKRHSRSLQHSSQRLQETKSTSPAKPAKTLMMI
notes: as for B7
For B10, the binding result in experiment [5] is on record as “binds”.

B11: SEQ ID NO 28 (scFv)
scFv: QVQLQQSGPGLVKPSQTLSLTCAISGDSVSSNSAAWNWIRQSPSRGLEWLGRTYYRSKWYNEYAVSVKSRITINPDTSKNHFSLQLNSVTPEDTAVYYCAREIVGTPFDYWGQGTLVTVSSGILGSGGGGSGGGGSGGGGSDIRVTQSPSSLSASVGDRVTITCRTSQSASKYVNWYQQKPGKVPKLLIYAASSLQSGVPSRFSGSGSGTHFTLSISNLQPGDMGTYYCQQGYGTPLTFGGGTKLEIKSGF
On to B11, for which the binding result in experiment [4] is “binds”.
